Laboratory results reported in US20030220482A1 (published 2003).

Columns and labels:
CXCR4 chemokine receptor [1] = target: T1, CXCR4 chemokine receptor (human, UniProt P61073 1-352); assay: ^125I-SDF-1α competitive binding on CEM-T4 cells
T1 construct: whole, on cells
Procedure: CEM-T4 cells were harvested and washed twice with PBS. […] The incubation was terminated by separating the cells from the binding buffer by centrifugation and washing once with 500 μl of cold binding buffer. Bound ligands were quantitated by counting γ emissions.

CCR5 chemokine receptor = target: T2, CCR5 chemokine receptor (UniProt P51681 1-352, limits assumed); assay: competitive binding with radiolabeled MIP-1β on CCR5-transfected 293 cells
T2 construct: whole, on cells

CXCR4 chemokine receptor [2] = target: T1, CXCR4 chemokine receptor; assay: control in ^125I-SDF-1α competitive binding on CEM-T4 cells (FIG. 1)

T1 sequence (P61073 whole entry): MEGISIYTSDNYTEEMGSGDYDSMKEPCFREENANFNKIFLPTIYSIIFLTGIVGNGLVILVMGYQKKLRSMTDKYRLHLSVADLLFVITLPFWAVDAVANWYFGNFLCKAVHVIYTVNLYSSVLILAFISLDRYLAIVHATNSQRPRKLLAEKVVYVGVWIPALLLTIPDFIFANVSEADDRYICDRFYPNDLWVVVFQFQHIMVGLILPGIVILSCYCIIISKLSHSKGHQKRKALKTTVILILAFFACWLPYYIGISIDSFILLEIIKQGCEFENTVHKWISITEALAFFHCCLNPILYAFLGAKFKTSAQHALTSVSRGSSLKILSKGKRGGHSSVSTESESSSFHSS
T2 sequence (P51681 whole entry): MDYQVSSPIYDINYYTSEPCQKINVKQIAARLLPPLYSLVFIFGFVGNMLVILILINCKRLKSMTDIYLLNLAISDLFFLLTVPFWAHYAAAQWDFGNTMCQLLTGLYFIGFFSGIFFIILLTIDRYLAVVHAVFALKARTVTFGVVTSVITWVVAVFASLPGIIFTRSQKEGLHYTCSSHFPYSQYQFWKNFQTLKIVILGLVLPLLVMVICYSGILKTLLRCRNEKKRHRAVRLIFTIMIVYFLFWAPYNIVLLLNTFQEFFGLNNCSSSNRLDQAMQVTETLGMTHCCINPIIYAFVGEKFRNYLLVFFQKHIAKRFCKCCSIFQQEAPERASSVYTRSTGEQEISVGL

| Binder | binding result (CXCR4 chemokine receptor [1]) | binding result (CCR5 chemokine receptor) | binding result (CXCR4 chemokine receptor [2]) |
| --- | --- | --- | --- |
| LGASWHRPDK [V3 peptide (vMIP-II, 1-10)] | binds | no binding |  |
| viral Macrophage Inflammatory Protein-II (vMIP-II) (ligand, also called native vMIP-II) LGASWHRPDKCCLGYQKRPLPQVLLSSWYPTSQLCSKPGVIFLTKRGRQVCADKSKDWVKKLMQQLPVTAR |  |  | binds |
